Assay results as given in article PMC7794846.
Values belong to the substance of their own block, whether it stands above or below them.

Experiments:
[1] = target: LHCGR A57T mutant (human) (UniProt P22888)
[2] = target: LHCGR N35D + V37A mutant (human) (UniProt P22888)
[3] = target: LHCGR R247T mutant (human) (UniProt P22888)
[4] = target: human luteinizing hormone (LH)/chorionic gonadotropin (hCG) receptor (LHCGR), wild type (human) (UniProt P22888)
[5] = target: LHCGR I83S mutant (human) (UniProt P22888)
[6] = target: LHCGR T48R mutant (human) (UniProt P22888)
[7] = target: LHCGR S149F mutant (human) (UniProt P22888)
[8] = target: LHCGR K225S + T226I mutant (human) (UniProt P22888)
[9] = target: LHCGR E270V mutant (human) (UniProt P22888)
[10] = target: LHCGR A57T mutant (human) (UniProt P22888); remark: listed apart in the source
[11] = target: LHCGR N35D + V37A mutant (human) (UniProt P22888); remark: listed apart in the source
[12] = target: LHCGR R247T mutant (human) (UniProt P22888); remark: listed apart in the source
[13] = target: human luteinizing hormone (LH)/chorionic gonadotropin (hCG) receptor (LHCGR), wild type (human) (UniProt P22888); remark: listed apart in the source
[14] = target: LHCGR I83S mutant (human) (UniProt P22888); remark: listed apart in the source
[15] = target: LHCGR T48R mutant (human) (UniProt P22888); remark: listed apart in the source
[16] = target: LHCGR S149F mutant (human) (UniProt P22888); remark: listed apart in the source
[17] = target: LHCGR K225S + T226I mutant (human) (UniProt P22888); remark: listed apart in the source
[18] = target: LHCGR E270V mutant (human) (UniProt P22888); remark: listed apart in the source

LH AUC of the pERK1/2 activation kinetics, BRET (REV biosensor) in transfected HEK293 cells, 100 pM LH (relative units) [1]: 10.9 | LH AUC of the pERK1/2 activation kinetics, BRET (REV biosensor) in transfected HEK293 cells, 100 pM LH (relative units) [2]: 5.48 | LH AUC of the pERK1/2 activation kinetics, BRET (REV biosensor) in transfected HEK293 cells, 100 pM LH (relative units) [3]: 10.5 | LH AUC of the pERK1/2 activation kinetics, BRET (REV biosensor) in transfected HEK293 cells, 100 pM LH (relative units) [4]: 13.9 | LH AUC of the pERK1/2 activation kinetics, BRET (REV biosensor) in transfected HEK293 cells, 100 pM LH (relative units) [5]: 8.03 | LH AUC of the pERK1/2 activation kinetics, BRET (REV biosensor) in transfected HEK293 cells, 100 pM LH (relative units) [6]: 12.3 | LH AUC of the pERK1/2 activation kinetics, BRET (REV biosensor) in transfected HEK293 cells, 100 pM LH (relative units) [7]: 10.4 | LH AUC of the pERK1/2 activation kinetics, BRET (REV biosensor) in transfected HEK293 cells, 100 pM LH (relative units) [8]: 11.4 | LH AUC of the pERK1/2 activation kinetics, BRET (REV biosensor) in transfected HEK293 cells, 100 pM LH (relative units) [9]: 10.9 | LH EC50 (pM) of cAMP increase, BRET (CAMYEL biosensor) in transfected HEK293 cells, 1 pM–100 nM LH, 30 min [10]: 703 pM | LH EC50 (pM) of cAMP increase, BRET (CAMYEL biosensor) in transfected HEK293 cells, 1 pM–100 nM LH, 30 min [11]: 595 pM | LH EC50 (pM) of cAMP increase, BRET (CAMYEL biosensor) in transfected HEK293 cells, 1 pM–100 nM LH, 30 min [12]: 556 pM | LH EC50 (pM) of cAMP increase, BRET (CAMYEL biosensor) in transfected HEK293 cells, 1 pM–100 nM LH, 30 min [13]: 1110 pM | LH EC50 (pM) of cAMP increase, BRET (CAMYEL biosensor) in transfected HEK293 cells, 1 pM–100 nM LH, 30 min [14]: 712 pM | LH EC50 (pM) of cAMP increase, BRET (CAMYEL biosensor) in transfected HEK293 cells, 1 pM–100 nM LH, 30 min [15]: 1210 pM | LH EC50 (pM) of cAMP increase, BRET (CAMYEL biosensor) in transfected HEK293 cells, 1 pM–100 nM LH, 30 min [16]: 756 pM | LH EC50 (pM) of cAMP increase, BRET (CAMYEL biosensor) in transfected HEK293 cells, 1 pM–100 nM LH, 30 min [17]: 698 pM | LH EC50 (pM) of cAMP increase, BRET (CAMYEL biosensor) in transfected HEK293 cells, 1 pM–100 nM LH, 30 min [18]: 2810 pM
Substance: recombinant human luteinizing hormone (LH) (from UniProt P01215 25-116; P01229 21-141) (ligand)

hCG AUC of the pERK1/2 activation kinetics, BRET (REV biosensor) in transfected HEK293 cells, 100 pM hCG (relative units) [1]: 20.5 | hCG AUC of the pERK1/2 activation kinetics, BRET (REV biosensor) in transfected HEK293 cells, 100 pM hCG (relative units) [2]: 8.19 | hCG AUC of the pERK1/2 activation kinetics, BRET (REV biosensor) in transfected HEK293 cells, 100 pM hCG (relative units) [3]: 15.4 | hCG AUC of the pERK1/2 activation kinetics, BRET (REV biosensor) in transfected HEK293 cells, 100 pM hCG (relative units) [4]: 7.98 | hCG AUC of the pERK1/2 activation kinetics, BRET (REV biosensor) in transfected HEK293 cells, 100 pM hCG (relative units) [5]: 6.65 | hCG AUC of the pERK1/2 activation kinetics, BRET (REV biosensor) in transfected HEK293 cells, 100 pM hCG (relative units) [6]: 13.4 | hCG AUC of the pERK1/2 activation kinetics, BRET (REV biosensor) in transfected HEK293 cells, 100 pM hCG (relative units) [7]: 13.9 | hCG AUC of the pERK1/2 activation kinetics, BRET (REV biosensor) in transfected HEK293 cells, 100 pM hCG (relative units) [8]: 9.47 | hCG AUC of the pERK1/2 activation kinetics, BRET (REV biosensor) in transfected HEK293 cells, 100 pM hCG (relative units) [9]: 7.18 | hCG EC50 (pM) of cAMP increase, BRET (CAMYEL biosensor) in transfected HEK293 cells, 1 pM–100 nM hCG, 30 min [10]: 153 pM | hCG EC50 (pM) of cAMP increase, BRET (CAMYEL biosensor) in transfected HEK293 cells, 1 pM–100 nM hCG, 30 min [11]: 94.5 pM | hCG EC50 (pM) of cAMP increase, BRET (CAMYEL biosensor) in transfected HEK293 cells, 1 pM–100 nM hCG, 30 min [12]: 386 pM | hCG EC50 (pM) of cAMP increase, BRET (CAMYEL biosensor) in transfected HEK293 cells, 1 pM–100 nM hCG, 30 min [13]: 143 pM | hCG EC50 (pM) of cAMP increase, BRET (CAMYEL biosensor) in transfected HEK293 cells, 1 pM–100 nM hCG, 30 min [14]: 127 pM | hCG EC50 (pM) of cAMP increase, BRET (CAMYEL biosensor) in transfected HEK293 cells, 1 pM–100 nM hCG, 30 min [15]: 130 pM | hCG EC50 (pM) of cAMP increase, BRET (CAMYEL biosensor) in transfected HEK293 cells, 1 pM–100 nM hCG, 30 min [16]: 111 pM | hCG EC50 (pM) of cAMP increase, BRET (CAMYEL biosensor) in transfected HEK293 cells, 1 pM–100 nM hCG, 30 min [17]: 194 pM | hCG EC50 (pM) of cAMP increase, BRET (CAMYEL biosensor) in transfected HEK293 cells, 1 pM–100 nM hCG, 30 min [18]: 248 pM
Substance: recombinant human chorionic gonadotropin (hCG) (from UniProt P01215 25-116; P0DN86 21-165) (ligand)
